Blank lines part the entries; values can stand above or below the substance they belong to.
How the values were obtained:
[1] = biological target: DNMT3A2 L859F/D876A/R882H, full-length, purified (human); experiment: SEC
[2] = biological target: DNMT3A2 R882H, full-length, purified (human); experiment: SEC
[3] = biological target: DNMT3A2 D876A, full-length, purified (human); experiment: SEC
[4] = biological target: DNMT3A2 D876A, full-length, purified (human); experiment: SEC + other: mass photometry
[5] = biological target: DNMT3A2 L859F/R882H, full-length, purified (human); experiment: SEC
[6] = biological target: DNMT3A2 wild type, full-length, purified (human); experiment: SEC
[7] = biological target: DNMT3A2 wild type, full-length, purified (human); experiment: SEC + other: mass photometry
[8] = biological target: DNMT3A2 D876A/R882H, full-length, purified (human); experiment: SEC

Substance: DNMT3A2 L859F/D876A/R882H, full-length, purified (enzyme)
stoichiometry N [1]: 2

Substance: DNMT3A2 D876A, full-length, purified (enzyme)
stoichiometry N [3]: 2 | stoichiometry N [4]: 2

Substance: DNMT3A2 wild type, full-length, purified (enzyme)
stoichiometry N [6]: 4 | stoichiometry N [7]: 4

Substance: DNMT3A2 D876A/R882H, full-length, purified (enzyme)
stoichiometry N [8]: 2

Now from value to substance:

stoichiometry N [2]: 4
Substance: DNMT3A2 R882H, full-length, purified (enzyme)

stoichiometry N [5]: 4
Substance: DNMT3A2 L859F/R882H, full-length, purified (enzyme)
